From article PMC8575462, “PP2A/B55α substrate recruitment as defined by the retinoblastoma-related protein p107” (eLife, 2021)
Values belong to the molecule of their own block, whether it stands above or below them.

Key:
[1] = target: B55α; assay: YFP pulldown, mass spectrometry; details: -log10 p-value est. 2.6; read off a plot
[2] = target: PP2A/A; assay: YFP pulldown, mass spectrometry; details: -log10 p-value est. 2.2; read off a plot
[3] = target: Flag-pRB (UniProt P06400); assay: co-immunoprecipitation (anti-Myc IP), western blot quantitation; details: 293T cells, co-transfected; parent: est. 1.0; read off a plot
Flag-pRB, sequence (P06400 whole entry): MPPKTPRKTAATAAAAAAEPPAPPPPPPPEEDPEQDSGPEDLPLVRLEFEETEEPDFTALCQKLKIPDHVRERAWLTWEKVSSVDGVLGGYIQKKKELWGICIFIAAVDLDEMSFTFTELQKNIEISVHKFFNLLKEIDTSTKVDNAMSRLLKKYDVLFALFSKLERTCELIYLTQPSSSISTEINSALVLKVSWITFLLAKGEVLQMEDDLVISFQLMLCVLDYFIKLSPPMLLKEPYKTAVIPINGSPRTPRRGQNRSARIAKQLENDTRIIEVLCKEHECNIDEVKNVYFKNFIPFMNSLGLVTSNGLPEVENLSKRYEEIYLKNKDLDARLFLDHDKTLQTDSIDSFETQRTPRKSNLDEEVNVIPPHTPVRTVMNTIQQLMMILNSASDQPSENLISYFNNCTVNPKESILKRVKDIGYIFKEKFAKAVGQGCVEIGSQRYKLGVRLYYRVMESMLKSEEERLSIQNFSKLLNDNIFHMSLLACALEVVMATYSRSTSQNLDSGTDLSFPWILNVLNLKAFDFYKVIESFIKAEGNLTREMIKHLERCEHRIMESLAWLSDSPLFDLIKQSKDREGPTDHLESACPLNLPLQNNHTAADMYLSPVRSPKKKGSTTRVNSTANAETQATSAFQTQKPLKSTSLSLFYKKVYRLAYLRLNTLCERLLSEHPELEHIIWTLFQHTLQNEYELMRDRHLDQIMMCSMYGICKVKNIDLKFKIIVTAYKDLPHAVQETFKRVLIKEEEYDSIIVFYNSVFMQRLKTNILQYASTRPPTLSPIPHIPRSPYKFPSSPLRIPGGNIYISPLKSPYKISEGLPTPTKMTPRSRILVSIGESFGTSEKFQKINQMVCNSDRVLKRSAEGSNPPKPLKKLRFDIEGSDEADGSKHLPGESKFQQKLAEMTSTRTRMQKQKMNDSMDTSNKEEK

[4] = target: purified PP2A/B55α holoenzyme (trimeric Flag-B55α/PP2A holoenzyme), P63151;P30153;P67775; assay: peptide competition of GST-p107 R1R2 pull-down of purified PP2A/B55α, western blot quantified with ImageJ; details: lower B55α signal = peptide competes for B55α, read off a plot
[5] = target: T1, purified monomeric full-length B55α (M1-N447) (UniProt P63151 1-447); assay: NMR titration; 2D [1H,15N] HSQC of 15N-labeled p107 (M612-S687) with and without unlabeled B55α mixed at 1:1 ratio; 283 K; 20 mM sodium phosphate pH 6.8, 250 or 50 mM NaCl, 0.5 mM TCEP; details: both partners purified
T1 construct: B55α M1-N447; also called B55α_(1-447); purified B55α; source: Expi293F, transfected, purified (GFP-nanobody beads, TEV cleavage, Mono Q); not shown: His6, N-terminal, cleaved; GFP, N-terminal, cleaved
T1 sequence (looked up): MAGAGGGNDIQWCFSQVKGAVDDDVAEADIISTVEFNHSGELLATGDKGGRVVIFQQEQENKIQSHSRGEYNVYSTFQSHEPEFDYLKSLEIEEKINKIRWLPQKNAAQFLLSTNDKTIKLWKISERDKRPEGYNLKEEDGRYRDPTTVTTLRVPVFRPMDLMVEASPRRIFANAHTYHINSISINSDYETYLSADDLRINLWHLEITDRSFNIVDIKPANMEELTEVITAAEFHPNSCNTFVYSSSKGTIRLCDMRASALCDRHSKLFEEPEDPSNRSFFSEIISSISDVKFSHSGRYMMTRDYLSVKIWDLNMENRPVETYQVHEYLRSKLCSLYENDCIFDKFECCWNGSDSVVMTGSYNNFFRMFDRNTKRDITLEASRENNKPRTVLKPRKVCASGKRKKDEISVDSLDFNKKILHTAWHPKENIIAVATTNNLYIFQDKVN

[6] = Peptides (at 300 µM), no-peptide control est. 0.68, parent: est. 0.08
[7] = peptide 120 µM, no-peptide control est. 0.68
[8] = peptide 240 µM, no-peptide control est. 0.68, parent: est. 0.07
[9] = Peptides (at 300 µM), no-peptide control est. 0.72, parent: est. 0.32
[10] = Peptides (at 300 µM), no-peptide control est. 0.68, parent: est. 0.09

ratio to parent [3]: 0.28
Molecule: Myc-B55α wild type (from UniProt P63151) EEK-AAA

response [4, 6]: 0.3
Molecule: R1 peptide (synthetic p107 peptide encompassing the R1 region) M618A

response [4, 6]: 0.2
Molecule: R1 peptide (synthetic p107 peptide encompassing the R1 region) P620A

response [4, 9]: 0.55
Molecule: R1 peptide (synthetic p107 peptide encompassing the R1 region) R621A

response [4, 7]: 0.8
response [4, 8]: 0.92
Molecule: R1 peptide (synthetic p107 peptide encompassing the R1 region) R621A; V622A; K623A

response [4, 7]: 0.04
response [4, 8]: 0.02
Molecule: R1 peptide (synthetic p107 peptide encompassing the R1 region) T627A; D628A; S629A

The next lines start with the molecule.

Molecule: GFP-p107-R1 (four copies of R1) H619A; R621A; V622A; V625A
other: log2 ratio WT-Mut [1]: 5.5
other: log2 ratio WT-Mut [2]: 3.2

Molecule: R1 peptide (synthetic p107 peptide encompassing the R1 region) E624A
response [4, 6]: 0.02

Molecule: R1 peptide (synthetic p107 peptide encompassing the R1 region) E624A; V625A; R626A
response [4, 7]: 0.56
response [4, 8]: 0.57

Molecule: R1 peptide (synthetic p107 peptide encompassing the R1 region) H619A
response [4, 9]: 0.38

Molecule: R1 peptide (synthetic p107 peptide encompassing the R1 region) K623A
response [4, 9]: 0.03

Molecule: R1 peptide (synthetic p107 peptide encompassing the R1 region) M618A; H619A; P620A
response [4, 7]: 0.43
response [4, 8]: 0.41

Molecule: R1 peptide (synthetic p107 peptide encompassing the R1 region) R626A
response [4, 9]: 0.08

Molecule: R1 peptide (synthetic p107 peptide encompassing the R1 region) S615A; P616A; L617A
response [4, 7]: 0.25
response [4, 8]: 0.1

Molecule: R1 peptide (synthetic p107 peptide encompassing the R1 region) V622A
response [4, 6]: 0.88

Molecule: R1 peptide (synthetic p107 peptide encompassing the R1 region) V625A
response [4, 6]: 0.98

Molecule: pS615-R1 phosphopeptide, wildtype H619A
response [4, 10]: 0.6

Molecule: pS615-R1 phosphopeptide, wildtype R621A
response [4, 10]: 0.82

B1: p107 (M612-S687) (domain or fragment, UniProt P28749 612-687, looked up)
chain: MPMSPLMHPRVKEVRTDSGSLRRDMQPLSPISVHERYSSPTAGSAKRRLFGEDPPKEMLMDKIITEGTKLKIAPSS
modifications: 15N-labeled
notes: p107 residues M612-S687, which include R1, R2 and R3; also called p107_(612-687); source: E. coli BL21, purified (HisTrap, TEV cleavage, heating at 80°C, SEC); not shown: His6, N-terminal, cleaved; MBP, N-terminal, cleaved
binding result [5]: binds
